Drawing on patent publication US20170101442A1 (published 2017), this text covers Kd for one molecule.

The target in assay [1] is 515. As to the kind of experiment: cell binding (labeled cells %); HSC-T6 cells; apparent Kd.
Assay [2] deals with 422. The description is as above.

B1: HSC-T6 cells (receptor)
chain: QAVDLDALCSYTWEAVDSKNNAVYKINPCGHVDNPRCGPTSAVCMCDLKSENCRSVGDSLLRSSAKSLLEFNTTTGCQPSEHRIQTSITFLCGKTLGTPEFVTATDCVHYFEWRTTAACKKDIFKADKEVPCYVFDDKLQKHDLNPLIKLNGGYLVDDSDADASLFINVCRDIDSLRDPSTQLRVCPAGTAACLLKGNQAFDVGRPKEGLKLLSKDRLVLTYVKEEGEKPDFCNGHSPAVTVTFVCPSERREGTIPKLTAKSNCRYEVEWITEYACHRDYLESETCSLSSEQHDIAIDLSPLAQHEEGSPYVADGGEYRFFMNVCGDTKVSLCNKEAAVCQEKKVDSTQVKIAGRHQNQTLRYSDGDLTLIYSGGDECSSGFQRMSVINFECNKTAGQDGRGEPVFTGEVDCTYFFTWDTKYACVKEKEDLLCGAIDGKKRYDLSVLARHSESEQNWEAVDGSQAESEKRNFFINVCHRVLQAGKAKNCPEGAAVCAVDKSGSKNLGKFVSSPTKEKGHIQLSYSDGDDCGNDKKITTNITFVCKPGDLESAPVLRAAGPDGCSYEFEWHTAAACVLSQTEGENCTVLDAQAGFSFDLSLLTKKNGAYKVETDKYDFYINVCGPVSVNLCQSNSGACQVAKSGKSWNLGLSNTKLTYYDGMIQLSYRNGTLYNNEKHTPRSTLITFLCDRDAGVGFPEYQEEDNSTYNFRWYTSYACPEEPLECMVTDPSMMEQYDLSSLVKFEGGRGGNWYAMENSREHFTRRKYYLNVCRPLNPVPGCDRYASACQMKYENNEGSLAETVAISNLGVAKTGPVVEESGSLLLEYVNGSACTTSDGRLTTYSTRIHLVCGRGTMNSHPIFTFNWECVVSFLWNTEAACPIQTITDSDQACSIRDPNSGFVFNLSPLNYSQGHMVLGIGKTFVFNICGTMPACGTVAGKPALGCEAETKIKDIKDLKPERPVGMEKSLQLSAEGFLTLTYKGSSPSDRGTAFIIRFICNGDIYPGTPKFLHQDIDSARGIRNTFFEFETALACIPSVVDCQVTDPAGNEYDLSALSMVRKPWTAVDTSVHGKKRRFYLSVCTPLPYIPGCDGIAMGSCMVSEDKSQNLGVVQISPQATGNGSLSILYVNGDRCGNQRYSTRIVFECAQTSGSPMFQLLNNCEYVFVWRTVEACPVVREEGDNCQVKDPRHGNLYDLKPLALNDTIISAGEYTYYFRVCGKLSLDVCSAHDGSKAVSSCQEKKGPQGFQKVAGLLNQKLTFENGLLKMNYSGGDTCHKVYQRSTTIYFYCDRTTQKPVFLKETLDCSYLFEWRTQYACPPFNVTECSIQDEAGNSIDLSSLSRYSDNWEAVTRTGATEHYLINVCKSLSPQAGTDPCPPEAAVCLLDGSKPVNLGRVRDGPQWTAGVTVLKYVDGDLCPDKIRKRSTIIRFTCSDSQVNSRPLFISAVQDCEYTFSWPTPAACPVKSNIHDDCQVTNPSTGHLFDLSSLSGKAGITASYSEKGMVFMSICEENVNCSPGVGACFGQTRISVGQASKRLSYKDQVLQLVYENGSPCPSKSGLRYKSVISFVCRPEAGPTNRPMLISLDKQSCTLFFSWHTPLACEQATECTVRNGSSIIDLSPLIHRTGGYEAYDESEDDTSDTTPDFYINICQPLNPMHGVPCPAGASVCKVPVDGPPIDIGRVTGPPIFNPVANEVYLNFESSTPCLADKYMNYTSLIAFHCRRGISMVTRDAHTYSIGVCTTAADLDQEGCKDGGVCLLSGSKGASFGRLASMQLDYRHQDEAVILSYVNGDPCPPETEDGEPCVFPFIYKGETYDECVLEGRAKLWCSKTANYDRDHEWGFCRPSTLSICAKEYIKVPWTALREPAFARRVPLVKSRFWGLFILKNWKS
With B1, the values for the Kd in assay [1] and in assay [2] were 57.6 µM and 402 µM, respectively.
